Source: IntAct's records for PubMed 23000721

B1: Chitin biosynthesis protein CHS6 (Saccharomyces cerevisiae), P40955 (parent)
chain: MNLFWPSETKKQNEIPGGDYTPGNSPSVQKGYQFLNRDIFKSCPRIMERQFGECLHNRTHLIKDLISSGNVGLGPIEIVHMSYLNKHEKEEFGEYFYVTGIEVSGPAMPVEFLEVLKSSKRISKNISNNIILTYCCFNFFSNLDIRIRYDADDTFQTTAIDCNKETTDLTMTEKMWEETFASSVIRAIITNTNPELKPPGLVECPFYVGKDTISSCKKIIELLCRFLPRSLNCGWDSTKSMQATIVNNYLMYSLKSFIAITPSLVDFTIDYLKGLTKKDPIHDIYYKTAMITILDHIETKELDMITILNETLDPLLSLLNDLPPRDADSARLMNCMSDLLNIQTNFLLNRGDYELALGVSNTSTELALDSFESWYNLARCHIKKEEYEKALFAINSMPRLRKNDGHLETMYSRFLTSNYYKKPLNGTREHYDLTAMEFTNLSGTLRNWKEDELKRQIFGRIAMINEKKIGYTKEIWDDIAIKLGPICGPQSVNLINYVSPQEVKNIKNINLIARNTIGKQLGWFSGKIYGLLMEIVNKIGWNGLLNIRTEAFMMETEFYQASNNIIDENGHIPMESRKKRFCEGWLDDLFLDLYQDLKLSKISLSNKDEKHSGLEWELLGLIMLRTWHWEDAVACLRTSIVARFDPVSCQQLLKIYLQPPKNIQEVTLLDTDTIISLLIKKISYDCRYYNYCQIFNLQLLEKLCNELGTHILRNKILLQPSIGDEIMVMIDAMLAWIADLDHTVQP
partner: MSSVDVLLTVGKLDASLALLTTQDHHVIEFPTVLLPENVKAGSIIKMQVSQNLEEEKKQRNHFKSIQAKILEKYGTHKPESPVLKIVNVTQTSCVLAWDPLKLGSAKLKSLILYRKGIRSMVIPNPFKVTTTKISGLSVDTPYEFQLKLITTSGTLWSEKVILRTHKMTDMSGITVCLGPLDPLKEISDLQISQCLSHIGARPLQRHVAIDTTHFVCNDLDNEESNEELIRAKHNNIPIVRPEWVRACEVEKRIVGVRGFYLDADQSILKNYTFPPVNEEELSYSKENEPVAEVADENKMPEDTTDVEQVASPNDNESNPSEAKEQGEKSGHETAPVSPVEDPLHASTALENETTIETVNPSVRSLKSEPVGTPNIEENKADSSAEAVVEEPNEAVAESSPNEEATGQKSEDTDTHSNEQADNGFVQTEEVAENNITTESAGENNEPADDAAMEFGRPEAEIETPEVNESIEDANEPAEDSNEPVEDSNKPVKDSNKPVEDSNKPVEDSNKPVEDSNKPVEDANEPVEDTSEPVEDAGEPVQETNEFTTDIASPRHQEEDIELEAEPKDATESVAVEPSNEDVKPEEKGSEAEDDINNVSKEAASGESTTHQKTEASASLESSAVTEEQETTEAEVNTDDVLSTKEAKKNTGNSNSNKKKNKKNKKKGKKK
B2: Chitin biosynthesis protein CHS5 (Saccharomyces cerevisiae), Q12114 (parent)
chain: B1 partner
partner: B1 chain

Variants of: B1
Conditions: with chs5_yeast CHS5, Q12114

effect of a mutation on the interaction | Variant
disrupting interaction | I305R

Variants of: B2
Conditions: with chs6_yeast CHS6, P40955

effect of a mutation on the interaction | Variant
disrupting interaction | F63E
disrupting interaction | Q67E
